# Biological target: pMHC monomer containing HLA-A*02:01 restricted NY-ESO-1 C9V peptide (human)
# Assay: capture of TCR-transduced PBMCs on pMHC-labeled nanovials (20 µg/ml pMHC), flow cytometry
substance,measurement,value
1G4 TCR,fraction of bound live cells with NGFR expression,93.9%

# — patent US20260218282A1
